This is an account of results in patent US20240117334A1, “FACTOR B PROTEASES” (Vertex Pharmaceuticals Incorporated, priority 2021, published 2024).

The chains are these.
B1: chymase C22S/L99W/F173K/K192R/R217S/S218V/A226R (enzyme)
chain: IIGGTESKPHSRPYMAYLEIVTSNGPSKFCGGFLIRRNFVLTAAHCAGRSITVTLGAHNITEEEDTWQKLEVIKQFRHPKYNTSTWHHDIMLLKLKEKASLTLAVGTLPFPSQFNFVPPGRMCRVAGWGRTGVLKPGSDTLQEVKLRLMDPQACSHKRDFDHNLQLCVGNPRKTKSAFRGDSGGPLLCAGVAQGIVSYGSVDAKPPRVFTRISHYRPWINQILQAN
B2: chymase C22S/F41V/L99H/G151R/F173S/Y215K/A226R (enzyme)
chain: IIGGTESKPHSRPYMAYLEIVTSNGPSKVCGGFLIRRNFVLTAAHCAGRSITVTLGAHNITEEEDTWQKLEVIKQFRHPKYNTSTHHHDIMLLKLKEKASLTLAVGTLPFPSQFNFVPPGRMCRVAGWGRTGVLKPRSDTLQEVKLRLMDPQACSHSRDFDHNLQLCVGNPRKTKSAFKGDSGGPLLCAGVAQGIVSKGRSDAKPPRVFTRISHYRPWINQILQAN
B3: chymase C22S/F41G/L99H/G151T/F173Y/Y215K/A226R (enzyme)
chain: IIGGTESKPHSRPYMAYLEIVTSNGPSKGCGGFLIRRNFVLTAAHCAGRSITVTLGAHNITEEEDTWQKLEVIKQFRHPKYNTSTHHHDIMLLKLKEKASLTLAVGTLPFPSQFNFVPPGRMCRVAGWGRTGVLKPTSDTLQEVKLRLMDPQACSHYRDFDHNLQLCVGNPRKTKSAFKGDSGGPLLCAGVAQGIVSKGRSDAKPPRVFTRISHYRPWINQILQAN
B4: chymase C22S/F41L/L99H/G151T/F173L/Y215K/A226R (enzyme)
chain: IIGGTESKPHSRPYMAYLEIVTSNGPSKLCGGFLIRRNFVLTAAHCAGRSITVTLGAHNITEEEDTWQKLEVIKQFRHPKYNTSTHHHDIMLLKLKEKASLTLAVGTLPFPSQFNFVPPGRMCRVAGWGRTGVLKPTSDTLQEVKLRLMDPQACSHLRDFDHNLQLCVGNPRKTKSAFKGDSGGPLLCAGVAQGIVSKGRSDAKPPRVFTRISHYRPWINQILQAN
B5: chymase C22S/F41L/L99H/F173Y/Y215K/A226R (enzyme)
chain: IIGGTESKPHSRPYMAYLEIVTSNGPSKLCGGFLIRRNFVLTAAHCAGRSITVTLGAHNITEEEDTWQKLEVIKQFRHPKYNTSTHHHDIMLLKLKEKASLTLAVGTLPFPSQFNFVPPGRMCRVAGWGRTGVLKPGSDTLQEVKLRLMDPQACSHYRDFDHNLQLCVGNPRKTKSAFKGDSGGPLLCAGVAQGIVSKGRSDAKPPRVFTRISHYRPWINQILQAN
B6: chymase C22S/F41V/L99H/F173Y/Y215K/A226R (enzyme)
chain: IIGGTESKPHSRPYMAYLEIVTSNGPSKVCGGFLIRRNFVLTAAHCAGRSITVTLGAHNITEEEDTWQKLEVIKQFRHPKYNTSTHHHDIMLLKLKEKASLTLAVGTLPFPSQFNFVPPGRMCRVAGWGRTGVLKPGSDTLQEVKLRLMDPQACSHYRDFDHNLQLCVGNPRKTKSAFKGDSGGPLLCAGVAQGIVSKGRSDAKPPRVFTRISHYRPWINQILQAN
B7: chymase C22S/F41V/L99H/G151T/F173L/Y215K/A226R (enzyme)
chain: IIGGTESKPHSRPYMAYLEIVTSNGPSKVCGGFLIRRNFVLTAAHCAGRSITVTLGAHNITEEEDTWQKLEVIKQFRHPKYNTSTHHHDIMLLKLKEKASLTLAVGTLPFPSQFNFVPPGRMCRVAGWGRTGVLKPTSDTLQEVKLRLMDPQACSHLRDFDHNLQLCVGNPRKTKSAFKGDSGGPLLCAGVAQGIVSKGRSDAKPPRVFTRISHYRPWINQILQAN
B8: chymase C22S/F41V/L99H/F173L/Y215K/A226R (enzyme)
chain: IIGGTESKPHSRPYMAYLEIVTSNGPSKVCGGFLIRRNFVLTAAHCAGRSITVTLGAHNITEEEDTWQKLEVIKQFRHPKYNTSTHHHDIMLLKLKEKASLTLAVGTLPFPSQFNFVPPGRMCRVAGWGRTGVLKPGSDTLQEVKLRLMDPQACSHLRDFDHNLQLCVGNPRKTKSAFKGDSGGPLLCAGVAQGIVSKGRSDAKPPRVFTRISHYRPWINQILQAN
B9: chymase C22S/F41R/L99H/G151T/F173Y/Y215K/A226R (enzyme)
chain: IIGGTESKPHSRPYMAYLEIVTSNGPSKRCGGFLIRRNFVLTAAHCAGRSITVTLGAHNITEEEDTWQKLEVIKQFRHPKYNTSTHHHDIMLLKLKEKASLTLAVGTLPFPSQFNFVPPGRMCRVAGWGRTGVLKPTSDTLQEVKLRLMDPQACSHYRDFDHNLQLCVGNPRKTKSAFKGDSGGPLLCAGVAQGIVSKGRSDAKPPRVFTRISHYRPWINQILQAN
B10: chymase C22S/F41R/L99H/G151A/F173S/Y215K/R217T/A226R (enzyme)
chain: IIGGTESKPHSRPYMAYLEIVTSNGPSKRCGGFLIRRNFVLTAAHCAGRSITVTLGAHNITEEEDTWQKLEVIKQFRHPKYNTSTHHHDIMLLKLKEKASLTLAVGTLPFPSQFNFVPPGRMCRVAGWGRTGVLKPASDTLQEVKLRLMDPQACSHSRDFDHNLQLCVGNPRKTKSAFKGDSGGPLLCAGVAQGIVSKGTSDAKPPRVFTRISHYRPWINQILQAN
B11: chymase C22S/F41G/L99H/F173Y/Y215K/A226R (enzyme)
chain: IIGGTESKPHSRPYMAYLEIVTSNGPSKGCGGFLIRRNFVLTAAHCAGRSITVTLGAHNITEEEDTWQKLEVIKQFRHPKYNTSTHHHDIMLLKLKEKASLTLAVGTLPFPSQFNFVPPGRMCRVAGWGRTGVLKPGSDTLQEVKLRLMDPQACSHYRDFDHNLQLCVGNPRKTKSAFKGDSGGPLLCAGVAQGIVSKGRSDAKPPRVFTRISHYRPWINQILQAN
B12: chymase C22S/F41L/L99H/F173L/Y215K/A226R (enzyme)
chain: IIGGTESKPHSRPYMAYLEIVTSNGPSKLCGGFLIRRNFVLTAAHCAGRSITVTLGAHNITEEEDTWQKLEVIKQFRHPKYNTSTHHHDIMLLKLKEKASLTLAVGTLPFPSQFNFVPPGRMCRVAGWGRTGVLKPGSDTLQEVKLRLMDPQACSHLRDFDHNLQLCVGNPRKTKSAFKGDSGGPLLCAGVAQGIVSKGRSDAKPPRVFTRISHYRPWINQILQAN
B13: chymase C22S/F41L/L99H/G151T/F173Y/Y215K/A226R (enzyme)
chain: IIGGTESKPHSRPYMAYLEIVTSNGPSKLCGGFLIRRNFVLTAAHCAGRSITVTLGAHNITEEEDTWQKLEVIKQFRHPKYNTSTHHHDIMLLKLKEKASLTLAVGTLPFPSQFNFVPPGRMCRVAGWGRTGVLKPTSDTLQEVKLRLMDPQACSHYRDFDHNLQLCVGNPRKTKSAFKGDSGGPLLCAGVAQGIVSKGRSDAKPPRVFTRISHYRPWINQILQAN
B14: chymase C22S/L99W/F173K/R217S/S218R/A226R (enzyme)
chain: IIGGTESKPHSRPYMAYLEIVTSNGPSKFCGGFLIRRNFVLTAAHCAGRSITVTLGAHNITEEEDTWQKLEVIKQFRHPKYNTSTWHHDIMLLKLKEKASLTLAVGTLPFPSQFNFVPPGRMCRVAGWGRTGVLKPGSDTLQEVKLRLMDPQACSHKRDFDHNLQLCVGNPRKTKSAFKGDSGGPLLCAGVAQGIVSYGSRDAKPPRVFTRISHYRPWINQILQAN
B15: chymase C22S/F41R/L99H/G151T/F173L/Y215K/A226R (enzyme)
chain: IIGGTESKPHSRPYMAYLEIVTSNGPSKRCGGFLIRRNFVLTAAHCAGRSITVTLGAHNITEEEDTWQKLEVIKQFRHPKYNTSTHHHDIMLLKLKEKASLTLAVGTLPFPSQFNFVPPGRMCRVAGWGRTGVLKPTSDTLQEVKLRLMDPQACSHLRDFDHNLQLCVGNPRKTKSAFKGDSGGPLLCAGVAQGIVSKGRSDAKPPRVFTRISHYRPWINQILQAN
B16: chymase C22S/F41R/L99H/F173L/Y215K/A226R (enzyme)
chain: IIGGTESKPHSRPYMAYLEIVTSNGPSKRCGGFLIRRNFVLTAAHCAGRSITVTLGAHNITEEEDTWQKLEVIKQFRHPKYNTSTHHHDIMLLKLKEKASLTLAVGTLPFPSQFNFVPPGRMCRVAGWGRTGVLKPGSDTLQEVKLRLMDPQACSHLRDFDHNLQLCVGNPRKTKSAFKGDSGGPLLCAGVAQGIVSKGRSDAKPPRVFTRISHYRPWINQILQAN
B17: chymase C22S/F41I/L99H/G151K/F173Y/Y215K/R217G/A226R (enzyme)
chain: IIGGTESKPHSRPYMAYLEIVTSNGPSKICGGFLIRRNFVLTAAHCAGRSITVTLGAHNITEEEDTWQKLEVIKQFRHPKYNTSTHHHDIMLLKLKEKASLTLAVGTLPFPSQFNFVPPGRMCRVAGWGRTGVLKPKSDTLQEVKLRLMDPQACSHYRDFDHNLQLCVGNPRKTKSAFKGDSGGPLLCAGVAQGIVSKGGSDAKPPRVFTRISHYRPWINQILQAN
B18: chymase C22S/F41K/L99H/G151A/F173Y/Y215K/R217S/A226R (enzyme)
chain: IIGGTESKPHSRPYMAYLEIVTSNGPSKKCGGFLIRRNFVLTAAHCAGRSITVTLGAHNITEEEDTWQKLEVIKQFRHPKYNTSTHHHDIMLLKLKEKASLTLAVGTLPFPSQFNFVPPGRMCRVAGWGRTGVLKPASDTLQEVKLRLMDPQACSHYRDFDHNLQLCVGNPRKTKSAFKGDSGGPLLCAGVAQGIVSKGSSDAKPPRVFTRISHYRPWINQILQAN
B19: chymase C22S/F41V/L99H/G151T/F173Y/Y215K/A226R (enzyme)
chain: IIGGTESKPHSRPYMAYLEIVTSNGPSKVCGGFLIRRNFVLTAAHCAGRSITVTLGAHNITEEEDTWQKLEVIKQFRHPKYNTSTHHHDIMLLKLKEKASLTLAVGTLPFPSQFNFVPPGRMCRVAGWGRTGVLKPTSDTLQEVKLRLMDPQACSHYRDFDHNLQLCVGNPRKTKSAFKGDSGGPLLCAGVAQGIVSKGRSDAKPPRVFTRISHYRPWINQILQAN
B20: chymase C22S/F41R/L99H/F173Y/Y215K/A226R (enzyme)
chain: IIGGTESKPHSRPYMAYLEIVTSNGPSKRCGGFLIRRNFVLTAAHCAGRSITVTLGAHNITEEEDTWQKLEVIKQFRHPKYNTSTHHHDIMLLKLKEKASLTLAVGTLPFPSQFNFVPPGRMCRVAGWGRTGVLKPGSDTLQEVKLRLMDPQACSHYRDFDHNLQLCVGNPRKTKSAFKGDSGGPLLCAGVAQGIVSKGRSDAKPPRVFTRISHYRPWINQILQAN
B21: chymase C22S/F41G/L99H/G151T/F173L/Y215K/A226R (enzyme)
chain: IIGGTESKPHSRPYMAYLEIVTSNGPSKGCGGFLIRRNFVLTAAHCAGRSITVTLGAHNITEEEDTWQKLEVIKQFRHPKYNTSTHHHDIMLLKLKEKASLTLAVGTLPFPSQFNFVPPGRMCRVAGWGRTGVLKPTSDTLQEVKLRLMDPQACSHLRDFDHNLQLCVGNPRKTKSAFKGDSGGPLLCAGVAQGIVSKGRSDAKPPRVFTRISHYRPWINQILQAN

For this assay, the target named is Human Factor B (human) (UniProt P00751). Briefly: cell-based or functional assay.
Human Factor B (human), sequence (P00751 26-764 limits assumed): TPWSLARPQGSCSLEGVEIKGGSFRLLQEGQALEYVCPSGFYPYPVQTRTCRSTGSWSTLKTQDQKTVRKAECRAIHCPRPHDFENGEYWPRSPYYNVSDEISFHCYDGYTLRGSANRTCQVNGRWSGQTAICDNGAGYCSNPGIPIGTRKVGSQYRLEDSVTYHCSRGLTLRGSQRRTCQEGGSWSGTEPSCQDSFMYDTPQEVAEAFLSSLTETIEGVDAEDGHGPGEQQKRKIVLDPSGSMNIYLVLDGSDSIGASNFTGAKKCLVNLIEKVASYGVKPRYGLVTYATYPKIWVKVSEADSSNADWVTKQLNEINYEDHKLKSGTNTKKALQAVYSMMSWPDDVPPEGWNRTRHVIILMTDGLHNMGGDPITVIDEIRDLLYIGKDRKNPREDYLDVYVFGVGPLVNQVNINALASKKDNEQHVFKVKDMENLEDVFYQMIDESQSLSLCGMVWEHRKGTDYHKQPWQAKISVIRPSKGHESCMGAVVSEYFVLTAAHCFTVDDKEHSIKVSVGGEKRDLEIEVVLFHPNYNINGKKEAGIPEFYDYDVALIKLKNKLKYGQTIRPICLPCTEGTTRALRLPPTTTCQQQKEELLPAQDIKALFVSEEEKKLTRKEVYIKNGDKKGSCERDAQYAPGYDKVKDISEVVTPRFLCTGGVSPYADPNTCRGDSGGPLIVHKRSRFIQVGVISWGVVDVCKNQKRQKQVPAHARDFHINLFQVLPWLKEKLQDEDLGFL
In turn, B1 showed a fB Cleavage EC50 of 2.49 µM.

Molecule B2 showed a fB Cleavage EC50 of 4.78 µM.

In turn, B3 registered a fB Cleavage EC50 of 6.6 µM.

Take B4: the fB Cleavage EC50 was found to be 4.17 µM.

Take B5: the fB Cleavage EC50 turned out to be 3.45 µM.

With B6, the fB Cleavage EC50 stood at 6.06 µM.

As for B7, the fB Cleavage EC50 amounted to 5.42 µM.

Consider B8, for which the fB Cleavage EC50 came out at 8.73 µM.

B9 yielded a fB Cleavage EC50 of 3.22 µM.

Regarding B10, the fB Cleavage EC50 came out at 2.25 µM; the fB Cleavage, 64% A2M-depl plasma EC50 came to 2.88 µM; the fB Cleavage, 64% plasma EC50 is 3.4 µM.

In the case of B11, the fB Cleavage EC50 came out at 6.65 µM.

In the case of B12, the fB Cleavage EC50 amounted to 7.89 µM.

Regarding B13, the fB Cleavage EC50 was 3.23 µM.

On to B14, for which the fB Cleavage EC50 came out at 2.66 µM.

B15 showed a fB Cleavage EC50 of 4.8 µM.

Turning to B16, the fB Cleavage EC50 was 6.64 µM.

B17 returned a fB Cleavage EC50 of 7.77 µM.

Molecule B18 had a fB Cleavage EC50 of 1.31 µM; a fB Cleavage, 64% A2M-depl plasma EC50 of 5.75 µM; a fB Cleavage, 64% plasma EC50 of 5.69 µM; a fB Cleavage, 80% plasma EC50 of 18.6 µM.

The molecule B19 registered a fB Cleavage EC50 of 5.33 µM.

As for B20, the fB Cleavage EC50 amounted to 4.8 µM.

The molecule B21 had a fB Cleavage EC50 of 11.5 µM.
